Assay [1] concerns the target T1, transferrin (UniProt P02787 20-698).
T1 construct: transferrin (serotransferrin); One molecule for the transferrin immobilised for SPR, added to cells (co-IP with intervention, FRET) and co-precipitated from human PBMC / T cells; Methods are in the supplement; also called Tf
Briefly: not stated; DK8 binding to transferrin, 'binding response value' and KD (Fig. S9C and E); method not given.

In assay [2] the target is T1, transferrin. Nature of the assay: SPR; Biacore T200; transferrin amine-coupled to a CM5 chip at ~6,000 resonance units; analytes in PBST (0.02% Tween 20) at 20 μl/min; TCRα, TCRβ and human serum albumin at 1,000 nM; TCRα and TRAC at 125, 250, 500 and 1,000 nM; kinetic and steady-state fits. The following applies: both partners purified.

T1 sequence (P02787 20-698): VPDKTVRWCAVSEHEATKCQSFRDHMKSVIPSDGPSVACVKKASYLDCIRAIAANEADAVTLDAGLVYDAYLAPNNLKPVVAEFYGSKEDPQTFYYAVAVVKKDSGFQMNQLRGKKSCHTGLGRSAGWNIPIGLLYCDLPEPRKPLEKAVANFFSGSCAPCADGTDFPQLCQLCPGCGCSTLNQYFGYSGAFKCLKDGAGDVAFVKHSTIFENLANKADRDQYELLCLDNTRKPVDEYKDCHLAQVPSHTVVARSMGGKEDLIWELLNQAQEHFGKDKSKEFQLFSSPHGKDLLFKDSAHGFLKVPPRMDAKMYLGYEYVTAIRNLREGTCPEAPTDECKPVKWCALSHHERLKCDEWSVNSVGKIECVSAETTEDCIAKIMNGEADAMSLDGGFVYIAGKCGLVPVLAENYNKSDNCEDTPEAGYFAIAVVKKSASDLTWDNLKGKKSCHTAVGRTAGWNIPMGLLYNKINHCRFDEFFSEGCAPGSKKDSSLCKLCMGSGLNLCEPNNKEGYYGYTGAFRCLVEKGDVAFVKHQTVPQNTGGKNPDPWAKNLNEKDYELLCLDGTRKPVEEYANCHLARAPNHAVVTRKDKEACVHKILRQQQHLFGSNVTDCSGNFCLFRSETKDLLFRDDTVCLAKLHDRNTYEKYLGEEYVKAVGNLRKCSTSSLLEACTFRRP

B1: DK8 (peptide)
peptide: DMRSMDFK
notes: amino acids 50 to 57 of TRAC (UniProt P01848); also called interfering peptide DK8; designed peptide (DK8)
On to B1, for which the Kd in assay [1] came to 166 nM.

B2: T cell receptor α constant (TRAC) (domain or fragment, human, UniProt P01848 1-115, looked up)
chain: IQNPDPAVYQLRDSKSSDKSVCLFTDFDSQTNVSQSKDSDVYITDKTVLDMRSMDFKSNSAVAWSNKSDFACANAFNNSIIPEDTFFPSPESSCDVKLVEKSFETDTNLNFQNLS
notes: T cell receptor alpha chain constant region (TRAC), human, UniProt P01848; TRAC protein used as analyte in SPR; construct and host may stand in the Supplementary Methods; also called constant domain (CD) of TCRα; Cα
As for B2, the Kd in assay [2] turned out to be 10.9 nM.

The values are drawn from PMC11731779, “Transferrin Disassociates TCR from CD3 Signaling Apparatus to Promote Metastasis” (Research, 2025).
